Experimental data reported in the supplement of paper PMC9170038.

Tested on: MS2 coat protein
Experiment: apparent KD of MS2 coat protein; designed switch direction (-1 OFF switch, 1 ON switch): -1; higher = weaker reporter binding
Procedure, shortened: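 Apparent KD, taken as the median over clusters for each design, was obtained by curve-fitting normalised cluster fluorescence. Designed RNA switches had been transcribed on Illumina chips by stalled E. coli RNA polymerase and titrated with SNAP-549-labelled MS2 coat protein, doubling from 0.7 or 1.5 nM to 3 µM.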

[1] = input ligand: microRNA oligo, concentration not stated
[2] = Eterna round: R95, input ligand: microRNA oligo, concentration not stated
[3] = Eterna round: R95, input ligand: FMN 200 uM
[4] = Eterna round: R95, input ligand: none

Sequence | apparent KD of MS2 coat protein (input ligand: FMN 200 uM) | apparent KD of MS2 coat protein (input ligand: none) | apparent KD of MS2 coat protein [1] | apparent KD of MS2 coat protein [2] | apparent KD of MS2 coat protein [3] | apparent KD of MS2 coat protein [4]
GCACUGCGAGGAUAUACAUGAGGAUCACCCAUGUGUCGGCAGCCAUGGUAGUACAAAUGUAGAAGGCGCGUAAA [EX3 #50] (Eterna round: R97, puzzle: Exclusion 3) | 85.6 nM | 587 nM |  |  |  | 
UACAUGAGGAUCACCCAUGUUUUAUCAUGUGUAAUAAUAAUGUAGGAUAUGUAUUUAUUUAUUUAACAGAAGGACAAUAAUAAA [JMF's solution 3] (Eterna round: R96, puzzle: Exclusion NG 3) | 462 nM | 423 nM | 435 nM |  |  | 
UGAUAGAGCCUAGGAUAUUCGGAUCUACUACAAGGAGAAGGAGGUAGUCGGUGACGAACAUGAGGAUCACCCAUGUCGUCCUUC [Eternabot solution 37] (Eterna round: R96, puzzle: Exclusion NG 1) |  |  | 61.7 nM |  |  | 
CCAAGCUUUUUCAUUAACAACAUGAGGAUCACCCAUGUUUAAGCUAUUACUUUUGGGCUCUUUAGUGCUAGUCUUAU [JR_STOV1_Sub039] (Eterna round: R97, puzzle: Sensor, turn-off variant 1) | 18.6 nM | 19.4 nM |  |  |  | 
GUAGAGUCAGGAUAUACAGAAAGUGGCUGGAAAACAGUGGCACAUGAGGAUCACCCAUGUAGAAGGGACUCUAC [ChP 11-04-2015 #1] (puzzle: Exclusion 2) |  |  |  | 84.3 nM |  | 
GUCAGCUCGUGAGGAUAUACAUGAGGAUCACCCAUGUGAUCAAUAGCAGCUUCGGCUGCAUUAAUGUAGAAGGCACGAGCUGAC [ENG2/5-A1] (Eterna round: R96, puzzle: Exclusion NG 2) | 61.8 nM | 152 nM | 22.2 nM |  |  | 
CUGUGCACGCUGCGGUCCUACAUGAGGAUCACCCAUGUGGUCUGGUGGCGUGGGUCGCCGGACUUGGCUCGUCUUGU [salish99_S_TOV1_R5_024] (Eterna round: R97, puzzle: Sensor, turn-off variant 1) | 18.2 nM | 19.3 nM |  |  |  | 
CGGUGCUGAGGAUAUACAUGAGGAUCACCCAUGUGUGCCAGCUAGCUGACUGGCACUUGUAGAAGGCAGUACUG [JL-ex3-2.13 Brourd mod] (puzzle: Exclusion 3) |  |  |  | 12.4 nM |  | 
UAUUAGUAAGGAUAUGAGUCGUAGAACAAUAGUACUACGUCUCAGAAGGUACAUGAGGAUCACCCAUGUUCAUU [Mod of Fisker 2 - Jieux - Exclusion 4] (Eterna round: R97, puzzle: Exclusion 4) | 27.4 nM | 19 nM |  |  |  | 
AAAAUGUAAGGAUAUGGCCGGGACCCAGGGUUUGGACCCGGCUAGAAGGUACAUGAGGAUCACCCAUGUAAGAA [Excls4-VIII] (puzzle: Exclusion 4) |  |  |  | 16.1 nM |  | 
GGAUCGUAUGUCAGGAUAUACCACUGGAUACAGUGGUAGAAGGGACAUGAGGAUCACCCAUGUGUUAUCGAUCC [Fiskers BMX 4 - 55] (puzzle: Brourd's mod of Exclusion 4) |  |  |  | 41.5 nM |  | 
ACAAGCUUUUAGAUUCUUAACAUGAGGAUCACCCAUGUGCUCGUCUUAUUUUCCGGCGGGCCGCCGGAAAAGCUUGU (Eterna round: R97, puzzle: Sensor, turn-off variant 1) | 92.5 nM | 93.8 nM |  |  |  | 
AGGAAUGAAGGAUAUACAUGAGGAUCACCCAUGUAAAAGGAAAGAGGUGAUGGAGAUAGUAGAAGGUCAAGAAG [JR_Exclusion3_Sub004] (puzzle: Exclusion 3) |  |  |  | 135 nM | 94.2 nM | 204 nM
AAAUCACAUGAGGAUCACCCAUGUGAGGAUAUGAUACUAUGUACUUCGGUACAUAGUAUCAGAAGGCAUGUGGA [Ex1-3: 89] (Eterna round: R96, puzzle: Exclusion 1) | 43.1 nM | 29.5 nM | 22.6 nM |  |  | 
UUAAUUAAUAAUUAAGAUCAUUACAUGAGGAUCACCCAUGUCGAGGAUAUCAGCUCGAUUAGAGCUGAGAAGGCGACAAAUUAU [ExNG3/13-B1] (Eterna round: R96, puzzle: Exclusion NG 3) | 1060 nM | 579 nM | 644 nM |  |  | 
UUACUAUGCCGCCUAAUAGCUUUUUGCUCGUCUUAUAUUACAUGAGGAUCACCCAUGUAGAUCAUGUGGCGUGACCU [JL ViennaUCT Maridi mod 3] (puzzle: Sensor v3, turn-off variant 2) |  |  |  | 42 nM | 216 nM | 206 nM
GUGGUGGGUUUUCCGAGUAACAUGAGGAUCACCCAUGUAUUAGUUUGAUGUAUCAAGCGAAUGGCUCGUCUUAUAUA [JR_SV3TOV1_Sub045] (puzzle: Sensor v3, turn-off variant 1) |  |  |  | 14.5 nM | 128 nM | 107 nM
ACUUACCAUGUCAGGAUAUGUACUUAGAACGCGAUGCAGAAGGGACAUGAGGAUCACCCAUGUAAUGUCUGAUA [Eternabot (L2) Solution 2] (Eterna round: R97, puzzle: Brourd's mod of Exclusion 4) | 51.6 nM | 21.1 nM |  |  |  | 
UACAUGAGGAUCACCCAUGUUUUAUCAUGUGUAAUAAUAAUGUAGGAUAUGUAUUAUUUUAUUUAACAGAAGGACAAUAAUAAA [JMF's solution 2] (Eterna round: R96, puzzle: Exclusion NG 3) | 426 nM | 524 nM | 467 nM |  |  | 
GCUGCGCGAGGAUAUGCGGUUUGCGCUGUGGCCCGUGGCGUACAUGAGGAUCACCCAUGUAGAAGGCGUGCGGG [Apr-15 SS2-56] (puzzle: Exclusion 2) |  |  |  | 10.4 nM |  | 
UUAUUAUAUGUAGGAUAUGCGUAUUGUUGUUAUGCAGAAGGACAUGAGGAUCACCCAUGUAUAUUAUUGUUAUAUAUUAUAUAU [Title] (Eterna round: R96, puzzle: Exclusion NG 1) | 43 nM | 25.3 nM | 20.2 nM |  |  | 
GCAGUGUGAGUUAGGAUAUGAUGAUUUUUUAUUGGUCAGAAGGAACUUGAGGAUCACCCAAGUUAGGAAUUGGU [JR_BMEx4_Sub075] (Eterna round: R97, puzzle: Brourd's mod of Exclusion 4) | 40.3 nM | 33.1 nM |  |  |  | 
AGUAACAGAGGAUAUACUAUUUUAUGUGUUUAUUAUUUUGAACAUGAGGAUCACCCAUGUAGAAGGCUGAAUAA [JMF 91] (puzzle: Exclusion 2) |  |  |  | 27.2 nM |  | 
GGCGGACAUGAGGAUCACCCAUGUUAGGAUAUGGUGCGAUCGUCGAUAGACGAUAGCACCAGAAGGGACACGCC [Mat - Exclusion 1 - Eli Mod - D2] (Eterna round: R97, puzzle: Exclusion 1) | 16.6 nM | 16.9 nM |  |  |  | 
CCAGAUGCAGGAUAUGUAAAAUUUGACAUGAGGAUCACCCAUGUAGAUCCUGAAUUUCCUGCAGAAGGGCAUCUGG [Mat - Exclusion 5 - Eli Mod - D20] (Eterna round: R97, puzzle: Exclusion 5) | 288 nM | 105 nM |  |  |  | 
GUUAAGGUAGGAUAUACGAUAAUAUAGGGUAGAAUAUUAACACAUGAGGAUCACCCAUGUAGAAGGACCAAUUG [Mat - Exclusion 2 - Mod of my Tesla design - D51] (puzzle: Exclusion 2) |  |  |  | 21.1 nM | 38.7 nM | 22.8 nM
